Target: [^68Ga]-DO3A-VS-Cys40-labeled Exendin-4 (UniProt P26349 48-86)
Assay: saturation binding of the radiolabeled probe on INS-1 cells

B1: GLP-1R expressed by INS-1 cells (receptor)
chain: GPRPQGATVSLSETVQKWREYRHQCQRFLTEAPLLATGLFCNRTFDDYACWPDGPPGSFVNVSCPWYLPWASSVLQGHVYRFCTAEGIWLHKDNSSLPWRDLSECEESKQGERNSPEEQLLSLYIIYTVGYALSFSALVIASAILVSFRHLHCTRNYIHLNLFASFILRALSVFIKDAALKWMYSTAAQQHQWDGLLSYQDSLGCRLVFLLMQYCVAANYYWLLVEGVYLYTLLAFSVFSEQRIFKLYLSIGWGVPLLFVIPWGIVKYLYEDEGCWTRNSNMNYWLIIRLPILFAIGVNFLVFIRVICIVIAKLKANLMCKTDIKCRLAKSTLTLIPLLGTHEVIFAFVMDEHARGTLRFVKLFTELSFTSFQGFMVAVLYCFVNNEVQMEFRKSWERWRLERLNIQRDSSMKPLKCPTSSVSSGATVGSSVYAATCQNSCS
notes: whole, on cells; Endogenous receptor on INS-1 cells and INS-1 tumors in mice; also called GLP-R1
- Kd: 8.6 nM

Reference: US20240269194A1 (CITY OF HOPE, published 2024)
